Data on six molecules can be found in article PMC8348300.

Data set [1] deals with T1, human alpha-thrombin (Homo sapiens, UniProt P00734;P00734 328-363;364-622). The experiment in a line: SPR; 10 mM KCl; text of 3.2 gives 99.8 nM; SPR (OpenSPR, immobilized thrombin): PBS, 0.005% Tween 20, 10 mM KCl, pH 7.4; TBA 1-16 uM (1-8 uM per Results), annealed 95 C 5 min then cooled to room temperat.
Data set [2] concerns the target T1, human alpha-thrombin. The experiment in a line: SPR; 10 mM KCl; SPR (OpenSPR, immobilized thrombin): PBS, 0.005% Tween 20, 10 mM KCl, pH 7.4; TBA 1-16 uM (1-8 uM per Results), annealed 95 C 5 min then cooled to room temperat.
In data set [3] the target is T1, human alpha-thrombin. Put plainly: SPR; 10 mM KCl; text of 3.2 gives 97.5 nM; SPR (OpenSPR, immobilized thrombin): PBS, 0.005% Tween 20, 10 mM KCl, pH 7.4; TBA 1-16 uM (1-8 uM per Results), annealed 95 C 5 min then cooled to room temperat.
Data set [4] deals with T1, human alpha-thrombin. Put plainly: SPR; 10 mM KCl; text of 3.2 gives 99 nM; SPR (OpenSPR, immobilized thrombin): PBS, 0.005% Tween 20, 10 mM KCl, pH 7.4; TBA 1-16 uM (1-8 uM per Results), annealed 95 C 5 min then cooled to room temperat.

For the molecule GGTTGGTGTGGTTGG (structured_DNA, T4 and T13: C5 NHS-carboxy-dT) [413NHT], the affinity in data set [1], expressed as Kd, was 102 nM. As for GGTTGGTGTGGTTGG (structured_DNA, 5' Trebler dendrimer (three arms with terminal hydroxyls)) [5TG], the Kd in data set [2] was determined as 102 nM. Regarding GGTTGGTGTGGTTGG (structured_DNA) [TBA (native)], binding in data set [2] was characterised by a dissociation constant (Kd) of 99.8 nM.

In data set [3], GGTTGGTGTGGTTGG (structured_DNA, T13: C5 NHS-carboxy-dT) [13NHT] had a Kd of 99.7 nM. For GGTTGGTGTGGTTGG (structured_DNA, T4: C5 NHS-carboxy-dT) [4NHT], the affinity in data set [4], expressed as Kd, was 102 nM.

In data set [2], GGTTGGTGTGGTTGG (structured_DNA, 5' Long Trebler dendrimer (three arms with terminal hydroxyls)) [5LTG] registered a Kd of 99.6 nM.
